US6103888A, “Mammalian cationic proteins having lipopolysaccharide binding and anti-coagulant activity” (priority 1999, dated 2000)
Several values for one entry are separate records, joined by “and”; a condition that tells them apart may be missing. Identical values can stand only once.

B1: human CAP18: human form of CAP18, amino acid sequence SEQ ID NO:2 (protein)
chain: MKTQRDGHSLGRWSLVLLLLGLVMPLAIIAQVLSYKEAVLRAIDGINQRSSDANLYRLLDLDPRPTMDGDPDTPKPVSFTVKETVCPRTTQQSPEDCDFKKDGLVKRCMGTVTLNQARGSFDISCDKDNKRFALLGDFFRKSKEKIGKEFKRIVQRIKDFLRNLVPRTES
B2: CAP18: cationic protein from rabbit granulocytes, 16.6 kD, SEQ ID NO:4 (protein)
chain: METHKHGPSLAWWSLLLLLLGLLMPPAIAQDLTYREAVLRAVDAFNQQSSEANLYRLLSMDPQQLEDAKPYTPQPVSFTVKETECPRTTWKLPEQCDFKEDGLVKRCVGTVTRYQAWDSFDIRCNRAQESPEPTGLRKRLRKFRNKIKEKLKKIGQKIQGLLPKLAPRTDY

Key:
[1] = system: cysteine protease; experiment: Cysteine protease activity of purified human CAP18; type: biochemical
[2] = system: galactosamine-sensitized mice; type: in vivo; conditions: CAP18 40 μg IP alone, no galactosamine, no Re-LPS; groups of 10 mice
From the text: Galactosamine sensitizes mice to the lethal effects of LPS by a factor 1000 or more. CAP18 and LPS were mixed and injected IP into sensitized mice. CAP18 can neutralize the lethal effects of LPS in this model of endotoxemia (see Table 8).

[3] = system: human mononuclear cells; experiment: LPS-induced tissue factor by human mononuclear cells (clotting assay); type: cell-based
Protocol: Human mononuclear cells were separated from citrated peripheral blood by centrifugation over Sodium-metrizoate-Ficoll (lymphocyte Separation Medium, Japan Antibody Institute, Gumma). The resulting mixed mononuclear cell suspension was washed 3 times with RPMI 1640 media. Cell suspension (1×10^6 /ml) was stimulated with LPS for 16 to 18 hr.
Veronal buffered saline (VBS) was added to the cell pellet, lysed by 3 cycles of freeze/thaw and sonicated for 10 sec with a hand-held sonicator microbe (Handy Sonic, model UR-20P, Tomy Seiko LTD, Tokyo). Tissue factor activity was tested in modified unactivated partial thromboplastin time (7). One tenth ml of cell lysate (1×10^6 /ml) was preincubated with mouse plasma at 37° C. for 3 min. Then 0.1 ml of 25 mM-CaCl2 which contains phospholipid was added to the mixture and clotting time was measured using a fibrometer (Bio Quest Division, Becton Dickinson, Cokeysville, USA). A standard curve obtained from serial two-fold dilutions of rabbit brain thromboplastic (Simplastin, Ono Pharmaceutical Co.) was used to transpose tissue factor activity into arbitrary tissue factor units (1 μg/ml) suspension of rabbit brain was assigned a value of 1,000 units).
The mean tissue factor units+standard error was determined from three to four samples. Student's t test for unpair data was used to determine the statistically significant differences. A two-tailed P value of <0.05 was considered significant. […]

[4] = LPS 0.1 μg/ml, peptide HA units: RNIP 2, CAP-18 1, HP-1 4, HP-2 2

Molecule | cysteine protease activity (in words) [1] | Lethality (%) [2] [%] | Inhibition (%) [3, 4] | Tissue Factor Units, value in parentheses (ratio to unstimulated control) [3, 4] | Δ Units (%) ([3]; LPS 0.1 μg/ml, relative to LPS alone (100)) | Tissue Factor Units, value in parentheses (ratio to unstimulated control) ([3]; no LPS, peptide alone) | Tissue factor units ([3]; no LPS, peptide alone) | Δ Units ([3]; no LPS, peptide alone) [Units]
B1 | significant cysteine protease activity | – | – | – | – | – | – | –
B2 | – | 0 | 30% and 35% | 9.9 | 70% and 65% | 1.2 | 583 ± 178 Units ×10^3 /3.6 × 10^4 cells | 235
